Common to all, as to conditions: both partners purified
Experiment [1] concerns the target T1, HAUSP TRAF-like domain (residues 53–206) (UniProt Q93009 53-206).
T1 construct: Cloned into pGEX-2T; source: E. coli BL21(DE3), purified to homogeneity
The experiment can be described thus: SEC; gel filtration on Superdex-200 (10/30); proteins incubated at 4 °C for at least 45 min; 25 mM Tris (pH 8.0), 100 mM NaCl, 2 mM DTT; fractions on SDS-PAGE, Coomassie. (In gel filtration, larger molecules generally elute earlier.)

Experiment [2] addresses T1, HAUSP TRAF-like domain (residues 53–206). The experiment is described as follows: ITC; 10 mM HEPES (pH 8.0), 100 mM NaCl; 4 °C. Background: Isothermal titration calorimetry measures the heat released or taken up as one component is titrated into another.
The target in experiment [3] is T2, HAUSP TRAF-like domain (residues 1–206) (UniProt Q93009 1-206).
T2 construct: Construct not described in the methods; source: purified to homogeneity as previously described
T2 sequence (Q93009 1-206): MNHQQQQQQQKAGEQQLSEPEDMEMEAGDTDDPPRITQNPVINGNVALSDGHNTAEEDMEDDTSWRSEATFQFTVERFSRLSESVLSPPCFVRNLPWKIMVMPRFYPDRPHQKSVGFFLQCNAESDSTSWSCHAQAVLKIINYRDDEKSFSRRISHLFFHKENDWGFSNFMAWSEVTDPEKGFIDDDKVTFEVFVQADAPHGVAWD
The experiment is described as follows: SEC; gel filtration on Superdex-200 (10/30); proteins incubated at 4 °C for at least 45 min; 25 mM Tris (pH 8.0), 100 mM NaCl, 2 mM DTT; fractions on SDS-PAGE, Coomassie.

T1 sequence (Q93009 53-206): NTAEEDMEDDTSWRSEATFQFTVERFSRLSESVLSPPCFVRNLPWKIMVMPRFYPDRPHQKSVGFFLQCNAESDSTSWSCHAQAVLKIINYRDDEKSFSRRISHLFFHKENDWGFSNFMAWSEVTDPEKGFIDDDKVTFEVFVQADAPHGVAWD

B1: MDM2 fragment (residues 170–232) (domain or fragment, human, UniProt Q00987 170-232, looked up)
chain: ENSDELSGERQRKRHKSDSISLSFDESLALCVIREICCERSSSSESTGTPSNPDLDAGVSEHS
notes: source: purified to homogeneity as previously described
As for B1, the binding result in experiment [1] was “binds”.

B2: MDM2 fragment (residues 223–289) (domain or fragment, human, UniProt Q00987 223-289, looked up)
chain: DLDAGVSEHSGDWLDQDSVSDQFSVEFEVESLDSEDYSLSEEGQELSDEDDEVYQVTVYQAGESDTD
notes: as for B1
Turning to B2, the binding result in experiment [1] is given as “binds”.

B3: MDM2 peptide (residues 208–242) (peptide, UniProt Q00987 208-242, looked up)
peptide: ERSSSSESTGTPSNPDLDAGVSEHSGDWLDQDSVS
notes: human MDM2, residues 208-242; also called MDM2 (residues 208–242) peptide
One may read the Kd as the concentration at which binding is half-saturated. Higher therefore signals a looser complex. Turning to B3, in experiment [2], the Kd turned out to be 3000 nM.

B4: MDM2 (residues 208–289) (domain or fragment, human, UniProt Q00987 208-289, looked up)
chain: ERSSSSESTGTPSNPDLDAGVSEHSGDWLDQDSVSDQFSVEFEVESLDSEDYSLSEEGQELSDEDDEVYQVTVYQAGESDTD
notes: also called MDM2 fragment; source: purified to homogeneity as previously described
On to B4, for which, in experiment [3], the binding result is reported as “binds”.

Values taken from PMC1334386 (PLoS Biology, 2006).
